According to patent US20140248638A1 (BAXALTA, published 2014):

Target: T1, human oxMIF (oxidized macrophage migration inhibitory factor) (human, UniProt P14174 2-115, oxidized isoform: made by mild oxidation (cystine, GSSG) or by 0.2% Proclin300 or protein crosslinkers (e.g. BMOE); the modified residues are not stated)
T1 construct: mature; a conformational/redox isoform; also called oxidized MIF; recombinant human oxMIF
Experiment: sandwich ELISA, plate coated with RAM0, human EDTA plasma; calibrated with recombinant human MIF in 0.2% ProClin300

T1 sequence (P14174 2-115): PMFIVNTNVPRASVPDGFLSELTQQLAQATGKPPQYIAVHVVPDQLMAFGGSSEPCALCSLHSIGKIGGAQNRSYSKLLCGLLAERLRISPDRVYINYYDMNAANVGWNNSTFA

binding result: binds
B1: human anti-MIF monoclonal antibody RAM0 (antibody, human IgG1, kappa, V domains shown)
VH: EVQLLESGGGLVQPGGSLRLSCAASGFTFSWYAMDWVRQAPGKGLEWVSGIYPSGGRTKYADSVKGRFTISRDNSKNTLYLQMNSLRAEDTAVYYCARVNVIAVAGTGYYYYGMDVWGQGTTVTVSS
VL: DIQMTQSPGTLSLSPGERATLSCRASQGVSSSSLAWYQQKPGQAPRLLIYGTSSRATGIPDRFSGSASGTDFTLTISRLQPEDFAVYYCQQYGRSLTFGGGTKVEIKR
notes: Deposits DSM 25864 and DSM 25863
